Test results as given in the nanobody polyreactivity screen of Harvey et al. (2022).

Test: yeast display, Sf9 membrane polyspecificity reagent, FACS + sequencing; frameworks hold sequencing errors
Outline: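 Nanobodies came from a synthetic yeast display library in Saccharomyces cerevisiae BJ5465, induced with galactose for 36–48 hours and stained for 1 hour at 4 °C with 10% biotinylated, detergent-solubilized Sf9 membrane reagent. Cells were enriched on streptavidin microbeads and then FACS-sorted, with low and high (top ~1%) gates set on anti-HA fluorescence for expression and streptavidin fluorescence for reagent binding. Each polyreactivity label reflects the gate a clone came from. Genes were amplified by colony PCR, sequenced by MiSeq 2 × 250 and filtered by CDR length.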

Sequence	polyreactivity (PSR sort gate)
QVQLVESGGGVVQAGGSLRLSCAASGSIFYVYSMGWYRQAPGKERELVAAISRSGTNTYYADSVKGRFTISRDNAKNTVYLQMNSLKPEDTAVYYCNADAAYLVTQPYDDNYDYWGQGTQVTVSS	low polyreactivity
QVQLVESGGGVVQAGGSLRLSCAASGSIVYSYAMGWYRQAPGKERELVARIRWGGGRTYYADSVKGHFAISRDNAKNTVYLQMNSLKPEDTAVYYCAASYVYPASFHYYYWGQGTQVTVSS	high polyreactivity
QVQLVESGGGVVQAGGSLRLSCAASGSTFDVYAMGWYRPAPGKERELVAAITSGGTTNYADSVKGRFTISRDNAQNTVYLQLNSLKPEDTAVYYCAADSPWGGGYFVLYNYWGQGTQVTVSS	low polyreactivity
QVQLVESGGGVVQAGGSLRLSCAASGSTFRTNAMGWYRQAPGKERELVAAITSTGGSTYYADSVKGRFTISRDNAKNTVYLQMNSLKPEDTAVYYCAAYYVPGYYYWGQGTQVTVSS	high polyreactivity
QVQLVESGGGVVQAGGSLRLSCAASGSTFRYNARGWYRQAPGKEREFVAAITTSGVRTYYADSVKGRFTISRDNAKNTVYLQMNSLKPEDTAVYYCARRTPGTRWNYDYWGQGTQVTVSS	high polyreactivity
QVQLVESGGGVVQAGGSLRLSCAASGSTFYPYAMGWYRPAPVKERELVASISSRGGTTYYADSEKGRFTISRDNAKNTVYLQRNSLKPEDTAVYYCAATYKHLNPLGVFSGGYYYWGQGTQVTVSS	high polyreactivity
QVQLVESGGGVVQAGGSLRLSCAASGSTLSYYAMGLYIQAPGTERELVAAITSGVSTNYADSVKGRFTISRDNAKNTVYFQMNSLKPEDTAVYYCAKAYGGYHDDYDYWGQVTQVTVSS	low polyreactivity
QVQLVESGGGVVQAGGSLRLSCAASGYIYLVYAMGWYRQATGKETELVAAISSGGSTYYADSVKGRFTISRDNAKNTVYLQMNSLKPEDTSVYYCATAGLALYAFRDDYWGQGTQVTVSS	low polyreactivity
QVQLVESGGGVVQAGGSLRLSCAATGSTFWWYAMGWYRQAPGKERELVADITTGGSTNYADSVKGRFTISRDNAKNTVYLQMNSLKPEDTAVYYCNADGVTPYTWRLRYFKYHFDYWGQGTQVTVSW	low polyreactivity
QVQLVESGGGVVQAGGSLRLSCDASGSTFDTYAMGWYRQAPGKERELVAGNTRRGGRTYYADSVKGRFTISRDNAKNTVYVQMNSLKPEDSAVYYCNALPQRPVGKRDHWGQGTQVTVSS	high polyreactivity
QVQLVESGGGVVQAGGSLRLSGAASGTLDGNAMGWYRPAPGKERELVAAISRCGGRTYYADSVKGRFTISRDNAKNTVYLQMNSQKPEDTAVYYCNTVSKPGYAYNYWGQGTQVTVSS	high polyreactivity
QVQLVESGGGVVQAGGSLRLSSAASGISFAYYAMGWYRQAPGKERELVASITNTGSTYYADSVKGRFTISRDNAKNSVYLEMTSLKPEDTAVYYCNAVLSSNTKWRYPGDDWGQGTQVTVSS	low polyreactivity
QVQLVESGGGVVQAGGSLRLSSAASGYIFRAYAMGWYRQAPGKERELVAAISSRGGSTYFADSVKGRFTISRDNAKNTVYLQMNSLKPEDTAVYYCAAAYRQPYIGYGYWGQGTQVTVSS	high polyreactivity
QVQLVESGGGVVQAGGSLRLSWAASGFIFAVYAMGWYRQSTGKERELVAAITFDGDTTYYADSVKGRFTISRDNANNTVYLQMKILKPDTAVYYCAAEYIKYLWYLHVDYWGQGTQVTVSS	low polyreactivity
QVQLVESGGGVVQAGGSLRLTCAASGFTFARYATGWYRQAPGKERELVAAITYSGGRTYYADSVKGRFTISRDNAKNTVYLHMNSLKPEDTAVYYCAARQYGPRYTYYYWGQGTQVTVSS	high polyreactivity
QVQLVESGGGVVQAGGSLRLTCAASGRTFYVYAMGWYRQAPGKEREFVAAITSSGGSTYYADSVKGRFTISRDNAKNTVYLQMNSLNPEDTAVYYSDAEWSTPSYVGFADGFEYWGQGTQVTVSS	low polyreactivity

Sequence	polyreactivity (PSR sort gate)
QVQLVESGGGVVQAGGSLSLSCAASGFNFNYYAMGWYRPAPGKERELVAISRGGTTNYADSVKGRFTISRDNAKNTVYLQMNSLKPEDTAVYYCAVTGTYYGYSWQSRYKYDYWGQGTQVTVSS	high polyreactivity
QVQLVESGGGVVQAGGTLRLSCAASGRIFSYYDMGWYRQAPGKERELVAAITWGGGATYYADSVKGRFTISRDNAKNTVYLLMNSLKPEDTAVYYCAADWSPSIWEYDYWGQGTQVTVSS	low polyreactivity
QVQLVESGGGYVQAGGSLRLSCAASGRTFLGYDMGWYRQAPGKERELVAAISSSGGSTYYADSVKGRFTISRDNAKNTVYLEMNSLKPEDTAVYYCAKRNRATGASGHRFGYWGQGTHVTVSS	high polyreactivity
QVQLVESGGLLVQAGGSLRLSCAASGSNSYRYDIVWYRQPPGKERELVATIRSGGSTNYADSVKGRFTISRDNAKNTVYLQMNSLKPEDTAVYYCASRLYARKKLHFSADSDYWGQGTQVSVSS	low polyreactivity
QVQLVESGGPLVQAGGSLRLICAASGRTFYYNAKGWYRQAPGKDRELVAAITWSGGGTYYADSVKGRFTISRDNAKNTDYLQMNSLKPEDTAFYYCAAEDWSIEYEYWGQGTQVTVSS	high polyreactivity
QVQLVESGGRIVQAGGSLRLRCAASGSTFHRYAMGRYRQAPGKERELVAAISRSGGSTYYADSVKGRFTISRDTAKNTVYLLMNSLKPVDTAVYYCAADRTGHGFGYWGQGTQVTVSS	high polyreactivity
QVQLVESGGRKVQAGGSLRLSCAASGYTSSRYAMGRYRPAPGKERELVAAISGTGGSTNYADSVKGRFTISRDNAKNNVYLQKNSLKPEDTAVYYCAKRSRTYGTSPYYYWGQGTQVSVSS	high polyreactivity
QVQLVESGGRLFQAGGSLRLSCAASGFTTSAYTKGWYRQAPGKERELVAVISARGGSTSYADSVKGRFTISRDNAKNPVYLQMKCRKPEDTAVFYCAARGRAHWHYDYWGHGTQVTVSS	high polyreactivity
QVQLVESGGRLFQAGGSLRLSCPASGFTFVYNAMGWYRQAPGKERELVATISSGGGRTYYADSVKGRFTISGDNAKNTVSLQKYSQKPEDTAVYYCATVRRTSSGERHEFWGQGTQVTVSS	low polyreactivity
QVQLVESGGRLHQAGGSLRLICAASGSIIATYAMGWYRPAHGKERELVAAITSSDGSTNYADSVKGRFTISRDNAKNTVYLQMNCLTPEDTAVYYCAKDVWRHYLNLYDYWGQGTQVTVSS	low polyreactivity
QVQLVESGGRLVHAGGSLRLSCAASGSTFERNLMGWYSEAPGKERELVAAISRVSSTNYADSVKGRFTISRDNAKNTVYLQMNSVKPEDTAVYSCAADRAGSIMNYWGQGTQVTVSS	low polyreactivity
QVQLVESGGRLVQAGASLRLSCAASGFTFGGYAMGWYRQPHGKQRELVAAIDSSGGRTYNADSVKGRFTISRDNAKNTVYLQMNSLKPEDTAVYYCNAVYGSDGYDYWGQGTQVTVSS	high polyreactivity
QVQLVESGGRLVQAGGRLRLSSAATGLIFYANAMGWYRQAPGKQREFVADISNSGGSTYYADSVKGRFTISRDNAKNTVYLQMNSLKPEDTAVYYCNRVAYKRGYGVRYGGDYDYSGQGTQVTVSS	low polyreactivity
QVQLVESGGRLVQAGGSHRIRCAASGFIFWYYAMGWYRPAPGKERELVAGITTGGSTNYADSVKGRFTISRDNAKNTVYLEMNSLKPEDTAVYYCNADPTYQVGYDYWGQGTQVTVSS	low polyreactivity
QVQLVESGGRLVQAGGSLLLSCAASGRIFDKYAMGWYRQAPGKERELVAAITYIDSGTYYADSVKGRFTISRDNAKNTVYLQMNSLKPEDTAVYYCAARYPSDYDYWGQDTQVTVSS	low polyreactivity
